Measured values reported in US20180031580.

Target: insulin-like growth factor type 1 (IGF-1)

B1: dipeptidyl-peptidase 4 (DPP-4) (protein)
chain: NKGTDDATADSRKTYTLTDYLKNTYRLKLYSLRWISDHEYLYKQENNILVFNAEYGNSSVFLENSTFDEFGHSINDYSISPDGQFILLEYNYVKQWRHSYTASYDIYDLNKRQLITEERIPNNTQWVTWSPVGHKLAYVWNNDIYVKIEPNLPSYRITWTGKEDIIYNGITDWVYEEEVFSAYSALWWSPNGTFLAYAQFNDTEVPLIEYSFYSDESLQYPKTVRVPYPKAGAVNPTVKFFVVNTDSLSSVTNATSIQITAPASMLIGDHYLCDVTWATQERISLQWLRRIQNYSVMDICDYDESSGRWNCLVARQHIEMSTTGWVGRFRPSEPHFTLDGNSFYKIISNEEGYRHICYFQIDKKDCTFITKGTWEVIGIEALTSDYLYYISNEYKGMPGGRNLYKIQLSDYTKVTCLSCELNPERCQYYSVSFSKEAKYYQLRCSGPGLPLYTLHSSVNDKGLRVLEDNSALDKMLQNVQMPSKKLDFIILNETKFWYQMILPPHFDKSKKYPLLLDVYAGPCSQKADTVFRLNWATYLASTENIIVASFDGRGSGYQGDKIMHAINRRLGTFEVEDQIEAARQFSKMGFVDNKRIAIWGWSYGGYVTSMVLGSGSGVFKCGIAVAPVSRWEYYDSVYTERYMGLPTPEDNLDHYRNSTVMSRAENFKQVEYLLIHGTADDNVHFQQSAQISKALVDVGVDFQAMWYTDEDHGIASSTAHQHIYTHMSHFIKQCFSLP
For B1, the “phosphorylation level of ERK or Akt (western blot)” value was “when the eNOS-deficient mice treated with IGF-1 was treated with DPP-4, the phosphorylation level of ERK or Akt which is the protein involved in intracellular signaling was reduced”.
